Source: IntAct's records for PubMed 18273061

B1: Vascular endothelial growth factor receptor 1 (Homo sapiens), P17948 (parent)
chain: MVSYWDTGVLLCALLSCLLLTGSSSGSKLKDPELSLKGTQHIMQAGQTLHLQCRGEAAHKWSLPEMVSKESERLSITKSACGRNGKQFCSTLTLNTAQANHTGFYSCKYLAVPTSKKKETESAIYIFISDTGRPFVEMYSEIPEIIHMTEGRELVIPCRVTSPNITVTLKKFPLDTLIPDGKRIIWDSRKGFIISNATYKEIGLLTCEATVNGHLYKTNYLTHRQTNTIIDVQISTPRPVKLLRGHTLVLNCTATTPLNTRVQMTWSYPDEKNKRASVRRRIDQSNSHANIFYSVLTIDKMQNKDKGLYTCRVRSGPSFKSVNTSVHIYDKAFITVKHRKQQVLETVAGKRSYRLSMKVKAFPSPEVVWLKDGLPATEKSARYLTRGYSLIIKDVTEEDAGNYTILLSIKQSNVFKNLTATLIVNVKPQIYEKAVSSFPDPALYPLGSRQILTCTAYGIPQPTIKWFWHPCNHNHSEARCDFCSNNEESFILDADSNMGNRIESITQRMAIIEGKNKMASTLVVADSRISGIYICIASNKVGTVGRNISFYITDVPNGFHVNLEKMPTEGEDLKLSCTVNKFLYRDVTWILLRTVNNRTMHYSISKQKMAITKEHSITLNLTIMNVSLQDSGTYACRARNVYTGEEILQKKEITIRDQEAPYLLRNLSDHTVAISSSTTLDCHANGVPEPQITWFKNNHKIQQEPGIILGPGSSTLFIERVTEEDEGVYHCKATNQKGSVESSAYLTVQGTSDKSNLELITLTCTCVAATLFWLLLTLFIRKMKRSSSEIKTDYLSIIMDPDEVPLDEQCERLPYDASKWEFARERLKLGKSLGRGAFGKVVQASAFGIKKSPTCRTVAVKMLKEGATASEYKALMTELKILTHIGHHLNVVNLLGACTKQGGPLMVIVEYCKYGNLSNYLKSKRDLFFLNKDAALHMEPKKEKMEPGLEQGKKPRLDSVTSSESFASSGFQEDKSLSDVEEEEDSDGFYKEPITMEDLISYSFQVARGMEFLSSRKCIHRDLAARNILLSENNVVKICDFGLARDIYKNPDYVRKGDTRLPLKWMAPESIFDKIYSTKSDVWSYGVLLWEIFSLGGSPYPGVQMDEDFCSRLREGMRMRAPEYSTPEIYQIMLDCWHRDPKERPRFAELVEKLGDLLQANVQQDGKDYIPINAILTGNSGFTYSTPAFSEDFFKESISAPKFNSGSSDDVRYVNAFKFMSLERIKTFEELLPNATSMFDDYQGDSSTLLASPMLKRFTWTDSKPKASLKIDLRVTSKSKESGLSDVSRPSFCHSSCGHVSEGKRRFTYDHAELERKIACCSPPPDYNSVVLYSTPPI
B2: Protein sprouty homolog 2 (Homo sapiens), O43597 (parent)
chain: MEARAQSGNGSQPLLQTPRDGGRQRGEPDPRDALTQQVHVLSLDQIRAIRNTNEYTEGPTVVPRPGLKPAPRPSTQHKHERLHGLPEHRQPPRLQHSQVHSSARAPLSRSISTVSSGSRSSTRTSTSSSSSEQRLLGSSFSSGPVADGIIRVQPKSELKPGELKPLSKEDLGLHAYRCEDCGKCKCKECTYPRPLPSDWICDKQCLCSAQNVIDYGTCVCCVKGLFYHCSNDDEDNCADNPCSCSQSHCCTRWSAMGVMSLFLPCLWCYLPAKGCLKLCQGCYDRVNRPGCRCKNSNTVCCKVPTVPPRNFEKPT

Variants of: B1
Conditions: with cbl_human CBL

Row | Variant | effect of a mutation on the interaction
1 | V1331N | increasing interaction

Variants of: B1
Conditions: with cbl_human CBL
Remark: another data set of the same source

Row | Variant | effect of a mutation on the interaction
2 | L1332R | increasing interaction

Variants of: B2
Conditions: with cbl_human CBL

Row | Variant | effect of a mutation on the interaction
3 | MEARAQSGNGSQPLLQTPRDGGRQRGEPDPRDALTQQVHVLSLDQIRAIRNTAEYTEGPTVVPRPGLKPAPRPSTQHKHERLHGLPEHRQPPRLQHSQVHSSARAPLSRSISTVSSGSRSSTRTSTSSSSSEQRLLGSSFSSGPVADGIIRVQPKSELKPGELKPLSKEDLGLHAYRCEDCGKCKCKECTYPRPLPSDWICDKQCLCSAQNVIDYGTCVCCVKGLFYHCSNDDEDNCADNPCSCSQSHCCTRWSAMGVMSLFLPCLWCYLPAKGCLKLCQGCYDRVNRPGCRCKNSNTVCCKVPTVPPRNFEKPT [N53A] | disrupting interaction

Variants of: B2
Conditions: with cbl_human CBL
Remark: another data set of the same source

Row | Variant | effect of a mutation on the interaction
4 | MEARAQSGNGSQPLLQTPRDGGRQRGEPDPRDALTQQVHVLSLDQIRAIRNTNEYTEGATVVPRPGLKPAPRPSTQHKHERLHGLPEHRQPPRLQHSQVHSSARAPLSRSISTVSSGSRSSTRTSTSSSSSEQRLLGSSFSSGPVADGIIRVQPKSELKPGELKPLSKEDLGLHAYRCEDCGKCKCKECTYPRPLPSDWICDKQCLCSAQNVIDYGTCVCCVKGLFYHCSNDDEDNCADNPCSCSQSHCCTRWSAMGVMSLFLPCLWCYLPAKGCLKLCQGCYDRVNRPGCRCKNSNTVCCKVPTVPPRNFEKPT [P59A] | decreasing interaction

Variants of: B2
Conditions: with cbl_human CBL
Remark: another data set of the same source

Row | Variant | effect of a mutation on the interaction
5 | MEARAQSGNGSQPLLQTPRDGGRQRGEPDPRDALTQQVHVLSLDQIRAIRNTNEFTEGPTVVPRPGLKPAPRPSTQHKHERLHGLPEHRQPPRLQHSQVHSSARAPLSRSISTVSSGSRSSTRTSTSSSSSEQRLLGSSFSSGPVADGIIRVQPKSELKPGELKPLSKEDLGLHAYRCEDCGKCKCKECTYPRPLPSDWICDKQCLCSAQNVIDYGTCVCCVKGLFYHCSNDDEDNCADNPCSCSQSHCCTRWSAMGVMSLFLPCLWCYLPAKGCLKLCQGCYDRVNRPGCRCKNSNTVCCKVPTVPPRNFEKPT [Y55F] | disrupting interaction
